Source: the supplement of paper PMC9170038

Test system: MS2 coat protein
Assay: apparent KD of MS2 coat protein; designed switch direction (-1 OFF switch, 1 ON switch): -1; higher = weaker reporter binding
Method in brief: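 Designed RNA switches with common flanks were transcribed on Illumina chips by stalled E. coli RNA polymerase and titrated with SNAP-549-labelled MS2 coat protein, from 0.7 or 1.5 nM doubling to 3 µM, in Tris-HCl pH 7.5 buffer with KCl, MgCl2, BSA, DTT, tRNA and Tween-20. Steps lasted 0.8–1.5 h (lowest) to 10–20 min (highest). Titrations ran without input, with 200 uM small-molecule ligand, or with an oligonucleotide input. Normalised cluster fluorescence was curve-fitted, and apparent KD is the per-design median over clusters.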

[1] = Eterna round: R95, input ligand: microRNA oligo, concentration not stated
[2] = input ligand: microRNA oligo, concentration not stated
[3] = Eterna round: R95, input ligand: FMN 200 uM
[4] = Eterna round: R95, input ligand: none

## CUCCUACAUGAGGAUCACCCAUGUCAGGAUAUCUCAGUGGUACCUAAAUUUACCACCCAGAGAAGGGACGUGCA [Diradireer] (puzzle: Exclusion 1)
[1]
  apparent KD of MS2 coat protein: 0.0119 µM

## UGUGUGAGACAGGAUAUGCUGGAUGUGUGGCGGGUAGAAGGGUCUACAUGAGGAUCACCCAUGUGGCCGGUUGG [Ex6 #69] (Eterna round: R97, puzzle: Exclusion 6)
Input ligand: FMN 200 uM
  apparent KD of MS2 coat protein: 0.0158 µM
Input ligand: none
  apparent KD of MS2 coat protein: 0.0189 µM

## ACAGUUUUGCAAGGAUAUCGUUUUAGUUUAUUACGAGAAGGUGCUUAAGUAAUUUCUUUGGGUUGACAUGAGGAUCACCCAUGU [JR_ExcNG1_Sub058] (Eterna round: R96, puzzle: Exclusion NG 1)
Input ligand: FMN 200 uM
  apparent KD of MS2 coat protein: 0.16 µM
[2]
  apparent KD of MS2 coat protein: 0.128 µM
Input ligand: none
  apparent KD of MS2 coat protein: 0.139 µM

## UGAGCUUCAGGAUAUACGUGACGACCGUGAGGUCGAAGGUUACAUGAGGAUCACCCAUGUAGAAGGGAAGUUCU [Mat - Exclusion 2 - JL Mod - D27] (Eterna round: R97, puzzle: Exclusion 2)
Input ligand: FMN 200 uM
  apparent KD of MS2 coat protein: 0.0708 µM
Input ligand: none
  apparent KD of MS2 coat protein: 0.0275 µM

## GGUUGGCGAGGAUAUACAUGAGGAUCACCCAUGUGAUAGAAAAAAGUGAGGAAGAAAAGUAGAAGGCGCUGACG [salish99_ex3_r3_009] (puzzle: Exclusion 3)
[3]
  apparent KD of MS2 coat protein: 0.723 µM
[1]
  apparent KD of MS2 coat protein: 0.0501 µM
[4]
  apparent KD of MS2 coat protein: 0.187 µM

## UCAUGGAAGCAGGAUAUGCUUGUUUAAUUGUUUGCAGAAGGGCUAACAUGAGGAUCACCCAUGUGAGAGGUCUA [JR_E6_Sub064] (puzzle: Exclusion 6)
[3]
  apparent KD of MS2 coat protein: 0.0205 µM
[1]
  apparent KD of MS2 coat protein: 0.0338 µM
[4]
  apparent KD of MS2 coat protein: 0.0367 µM

## UUUAUGUGAGGAUAUAGUACUCCUUCUAUUAUUUUUGAGUACUAGAAGGCACAUGAGGAUCACCCAUGUAGUAC [Ex4 - 3 - 38] (puzzle: Exclusion 4)
[1]
  apparent KD of MS2 coat protein: 0.0221 µM

## UAAGUUUACCGAGGAUAUGGUUUUUCCUAUUAACCAGAAGGCGGACUCAACAUGAGGAUCACCCAUGUAUAAAGGGUAUUAGGU [JR_ExcNG1_Sub044] (Eterna round: R96, puzzle: Exclusion NG 1)
Input ligand: FMN 200 uM
  apparent KD of MS2 coat protein: 0.0885 µM
[2]
  apparent KD of MS2 coat protein: 0.068 µM
Input ligand: none
  apparent KD of MS2 coat protein: 0.0742 µM

## UAUUAACAAGCUAGGUCCCACAUGAGGAUCACCCAUGUGCUCGUCUUAUAAGGUACUGUGACGAAAGUCACGGUACC [Sensor 3, v1 - 79] (Eterna round: R96, puzzle: Sensor v3, turn-off variant 1)
Input ligand: FMN 200 uM
  apparent KD of MS2 coat protein: 0.0302 µM
[2]
  apparent KD of MS2 coat protein: 0.464 µM
Input ligand: none
  apparent KD of MS2 coat protein: 0.0384 µM

## UCGACGUCGUCAGGAUAUAGUUUUAAUGUCAUGCUUUUGUUUUUACAUGAGGAUCACCCAUGUCGCUAGAAGGGACUAAAGAUU [JR_ExcNG2_Sub013] (Eterna round: R96, puzzle: Exclusion NG 2)
Input ligand: FMN 200 uM
  apparent KD of MS2 coat protein: 0.0367 µM
[2]
  apparent KD of MS2 coat protein: 0.0341 µM
Input ligand: none
  apparent KD of MS2 coat protein: 0.0417 µM

## GGGCAGGGAGGAUAUGUAUCGCACUACAUGAGGAUCACCCAUGUGCCUUUUGUGACGUGGACAGAAGGUCCUGCCG [Eternabot (L1) Solution 17] (Eterna round: R97, puzzle: Exclusion 5)
Input ligand: FMN 200 uM
  apparent KD of MS2 coat protein: 0.129 µM
Input ligand: none
  apparent KD of MS2 coat protein: 0.193 µM

## GAUCGACAUGAGGAUCACCCAUGUCAGGAUAUCGUCACUGGAGCCUCGGCUCCAGUGACGAGAAGGGACAUAAU [E1/13-A2] (Eterna round: R97, puzzle: Exclusion 1)
Input ligand: FMN 200 uM
  apparent KD of MS2 coat protein: 0.0468 µM
Input ligand: none
  apparent KD of MS2 coat protein: 0.0394 µM

## CAGUACUGAGGAUAUACAUGAGGAUCACCCAUGUGUCUUCUCCUAGGAAACUAGGUAUGUAGAAGGCAGUACUG [Omei Ex3 Mod of Eli 4.27 v1] (Eterna round: R97, puzzle: Exclusion 3)
Input ligand: FMN 200 uM
  apparent KD of MS2 coat protein: 1.37 µM
Input ligand: none
  apparent KD of MS2 coat protein: 0.04 µM

## CAGUACUGAGGAUAUACAUGAGGAUCACCCAUGUGAGAGUUACUAGUGAGGUCGAUUAGUAGAAGGCAGUACUG [Mat X3R4 m29] (Eterna round: R97, puzzle: Exclusion 3)
Input ligand: FMN 200 uM
  apparent KD of MS2 coat protein: 0.215 µM
Input ligand: none
  apparent KD of MS2 coat protein: 0.0396 µM

## AGACAGUCAGGAUAUACAUGAGGAUCACCCAUGUUGAGAUGAGAAAGGGCAGGAAGAGGUAGAAGGGACAAGAA [JR_Exclu3_Sub035] (puzzle: Exclusion 3)
[3]
  apparent KD of MS2 coat protein: 0.0283 µM
[1]
  apparent KD of MS2 coat protein: 0.0192 µM
[4]
  apparent KD of MS2 coat protein: 0.0248 µM

## GACUAGUGAGGAUAUACUUGCAGUGUACCUCGGGUGAUCUCACUUGAGGAUCACCCAAGUAGAAGGCGCGAGGG [EX2 #23] (Eterna round: R97, puzzle: Exclusion 2)
Input ligand: FMN 200 uM
  apparent KD of MS2 coat protein: 0.0131 µM
Input ligand: none
  apparent KD of MS2 coat protein: 0.0183 µM

## GACUAGGGAGGAUAUAUUUACAGUGUACCUCGGGUGAUCGCACUUGAGGAUCACCCAAGUAGAAGGCUCGAGGG [EX2 #27] (Eterna round: R97, puzzle: Exclusion 2)
Input ligand: FMN 200 uM
  apparent KD of MS2 coat protein: 0.03 µM
Input ligand: none
  apparent KD of MS2 coat protein: 0.0359 µM

## UAAUUAAUAAGAUCAAUUAAUUAACAUGAGGAUCACCCAUGUGAGGAUAUCAGCUCGUGUAGAGCUGAGAAGGCACAAUAAUUA [ExNG3/17-C3] (Eterna round: R96, puzzle: Exclusion NG 3)
Input ligand: FMN 200 uM
  apparent KD of MS2 coat protein: 0.203 µM
[2]
  apparent KD of MS2 coat protein: 0.0388 µM
Input ligand: none
  apparent KD of MS2 coat protein: 0.0519 µM

## AGUGCGUAUGUGAGGAUAUGCUGGUCCUUGGCUCGGCAGAAGGCACAUGAGGAUCACCCAUGUGGUGUCGUACG [salish99_Bmod_ex4_065] (puzzle: Brourd's mod of Exclusion 4)
[1]
  apparent KD of MS2 coat protein: 0.0488 µM

## AGAAGUAGUAACCGAUCCUACAUGAGGAUCACCCAUGUAGCCAGACGUGCACGCGAAGCUCGUCAGACUACCAGAUG [salish99_TOv1_r3_026] (puzzle: Sensor v3, turn-off variant 1)
[3]
  apparent KD of MS2 coat protein: 0.618 µM
[1]
  apparent KD of MS2 coat protein: 0.447 µM
[4]
  apparent KD of MS2 coat protein: 0.398 µM

## GUGUGCACGCUGCGAUCCUACAUGAGGAUCACCCAUGUGGUCUGGUGGCGUGGGUCACCGGACUUGGCUCGUCUUGA [salish99_S_TOV1_R5_069] (Eterna round: R97, puzzle: Sensor, turn-off variant 1)
Input ligand: FMN 200 uM
  apparent KD of MS2 coat protein: 0.121 µM
Input ligand: none
  apparent KD of MS2 coat protein: 0.118 µM

## UAAGAUUACCGAGGAUAUGGUGGUUUCUAUUAACCAGAAGGCGGACUCAACAUGAGGAUCACCCAUGUAUAAAGGGUAUUAGAU [Ex NG1 #8] (Eterna round: R96, puzzle: Exclusion NG 1)
Input ligand: FMN 200 uM
  apparent KD of MS2 coat protein: 0.134 µM
[2]
  apparent KD of MS2 coat protein: 0.112 µM
Input ligand: none
  apparent KD of MS2 coat protein: 0.144 µM

## AAUACGUGAGGAUAUAGAUGAAGGAACUUGAGGAUCACCCAAGUGGCGUCUAGUUCCUGGCUAGAAGGCACAAAUA [Biedbe] (Eterna round: R97, puzzle: Exclusion 5)
Input ligand: FMN 200 uM
  apparent KD of MS2 coat protein: 0.263 µM
Input ligand: none
  apparent KD of MS2 coat protein: 0.326 µM

## UUGCAGUCGUCAGGAUAUAGUAUUACGGCCUUUCAUUUCUUCAUACAUGAGGAUCACCCAUGUCGCUAGAAGGGAUUAUCGCUU [salish99_ExNG2_r04_107] (Eterna round: R96, puzzle: Exclusion NG 2)
Input ligand: FMN 200 uM
  apparent KD of MS2 coat protein: 0.0164 µM
[2]
  apparent KD of MS2 coat protein: 0.0146 µM
Input ligand: none
  apparent KD of MS2 coat protein: 0.0206 µM

## ACUGGUCGAGGAUAUACAUGAGGAUCACCCAUGUAGAUCAACCAGCGAUAGCUGGAAUGUAGAAGGCGACCAGU [E3/5-A2] (Eterna round: R97, puzzle: Exclusion 3)
Input ligand: FMN 200 uM
  apparent KD of MS2 coat protein: 0.191 µM
Input ligand: none
  apparent KD of MS2 coat protein: 0.0246 µM

## AAUACAAGCUAUUGAUCCCACAUGAGGAUCACCCAUGUAGCUGGCCGUGAGACCAGCUUUACAAUAGCUCGUCUUAU [Sensor-V1 #49] (Eterna round: R97, puzzle: Sensor, turn-off variant 1)
Input ligand: FMN 200 uM
  apparent KD of MS2 coat protein: 0.0752 µM
Input ligand: none
  apparent KD of MS2 coat protein: 0.0713 µM
